# Target: T1, MBP-VH(BGP) labeled with ALEXA FLUOR 555 together with MBP-VL(BGP) labeled with ALEXA FLUOR 647 (labeled with ALEXA FLUOR 647 (labeled residues not stated); labeled with ALEXA FLUOR 555 (labeled residues not stated))
# T1 construct: Two separate MBP-fused antibody fragments, covalently immobilized on a carboxymethyl dextran glass substrate; The MBP leader is part of the printed entries; also called fusion protein of anti-osteocalcin (BGP) VH-region polypeptide with MBP; fusion protein of anti-BGP VL-region polypeptide (antibody KTM219) with MBP
# Experiment: FRET on immobilization substrates I and J
binder,measurement,value
RRFYGPY (also called BGP heptapeptide; BGP heptapeptide (RRFYGPY)) [C-terminal heptapeptide fragment of BGP (RRFYGPY)],binding result,binds

# Source: patent publication US20110237462A1 (FUJIFILM, published 2011)
